In publication PMC4637274 one finds stoichiometry N data, which are given here for three substances.

For assay [1], the target named is 16055 gp140 NFL2P (HIV-1 (16055)). Description: negative-stain EM of unliganded trimers.
In assay [2] the target is JRFL gp140 NFL2P (HIV-1 (JRFL)). Description: negative-stain EM of unliganded trimers.
The target is the same in assay [3]. Description: SEC + native gel or EMSA. For orientation: A gel shift assay detects complexes by their altered migration in electrophoresis.
The target in assay [4] is BG505 gp140 NFL2P (HIV-1 (BG505)). Description: negative-stain EM of unliganded trimers.
For assay [5] the target is unchanged. Description: SEC + native gel or EMSA.

The term stoichiometry N denotes the number of molecules, sites or subunits per partner or assembly. In assay [1], 16055 gp140 NFL2P displayed a stoichiometry N of 3.
Take JRFL gp140 NFL2P: the stoichiometry N in assay [2] and in assay [3] was 3 throughout.
In the case of BG505 gp140 NFL2P, the stoichiometry N in assay [4] and in assay [5] was 3 in each case.
